Data reported in patent US20250034594A1, “RNA-GUIDED GENOME RECOMBINEERING AT KILOBASE SCALE” (THE BOARD OF TRUSTEES OF THE LELAND STANFORD JUNIOR …, priority 2021, published 2025).
Read-outs that look alike come from different tables or passages of the source.

Key:
DYNLT1 locus = assay: mKate knock-in gene-editing assay, RecE/RecT homologs, DYNLT1 locus; format: cell-based, human; conditions: HEK293 cells, MCP fusion, n=3
Procedure: (§1) Transfection HEK293T cells were seeded into 96-well plates (Corning) 12-24 hours prior to transfection at a density of 30,000 cells/well, and 250 ng of total DNA was transfected per well. HeLa and HepG2 cells were seeded into 48-well plates (Corning) one day prior to transfection at a density of 50,000 and 30,000 cells/well respectively, and 400 ng of total DNA was transfected per well. Transfections were performed with Lipofectamine 3000 (Life Technologies) following the manufacturer's instructions.
(§2) Fluorescence-activated cell sorting (FACS) mKate knock-in efficiency was analyzed on a CytoFLEX flow cytometer (Beckman Coulter; Stanford Stem Cell FACS Core). 72 hours after transfection, cells were washed once with PBS and dissociated with TrypLE Express Enzyme (Thermo Fisher Scientific). Cell suspension was then transferred to a 96-well U-bottom plate (Thermo Fisher Scientific) and centrifuged at 300×G for 5 minutes. After removing the supernatant, pelleted cells were resuspended with 50 μl 4% FBS in PBS, and cells were sorted within 30 minutes of preparation.
(§3) 15 different species of microbes having RecE/RecT proteins were selected for a screen of various RecE and RecT proteins across the microbial kingdom (Table 3). Each protein was codon-optimized and synthesized. As previously described for E. coli RecE/RecT based REDIT systems, each protein was fused via E-XTEN linker to the MCP protein with additional nuclear localization signal. mKate knock-in gene-editing assay was used to measure efficiencies at DYNLT1 locus (FIG. 26A, Table 4) and HSP90AA1 locus (FIG. 26B, Table 4).

HSP90AA1 locus = assay: mKate knock-in gene-editing assay, RecE/RecT homologs, HSP90AA1 locus; format: cell-based, human; conditions: HEK293 cells, MCP fusion, n=3
Procedure: as §1, §2, §3

gene editing with Cas9 = assay: Screen of 322 new SSAP proteins, gene editing activity with Cas9 (Table 5); format: cell-based; parameters: Cas9 with SSAP activity: scale not given here
How it was run: (§4)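 Read-out is gene editing activity. Candidates come from sequence data mining, are made synthetically, and are tested alongside either nuclease-active Cas9 or catalytically dead dCas9.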

gene editing with dCas9 = assay: Screen of 322 new SSAP proteins, gene editing activity with dCas9 (Table 5); format: cell-based; parameters: dCas9 with SSAP activity: scale not given here
How it was run: as §4

[1] = system: gene editing with Cas9 and dCas9; assay: Screen of 322 new SSAP proteins, activity across all experiments (Cas9 and dCas9, Table 5); format: cell-based; parameters: scale not given here
How it was run: as §4

mammalian cells = assay: Arrayed SSAP library screening, cell viability by live cell counts via flow cytometry; format: cell-based
How it was run: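 Each SSAP plasmid transfected in duplicate (~50% efficiency), with RecT SSAP as positive and Flag-HA as negative control. After three days, mKate-positive cells and viability by flow-cytometric live cell counts were quantified to gauge SSAP fitness effects.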

[2] = system: endogenous genome targets (ACTB, HSP90AA1); assay: Arrayed SSAP library screening, mKate knock-in assay (editing efficiency); format: cell-based; conditions: average of HSP90 and ACTB, 3 days after transfection; for Editing Efficiency (Normalized, Average, two targets): fold over negative control (Flag_HA); for Editing Efficiency (Absolute, Average, two targets): percent of mKate knock-in
How it was run: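 Mammalian cells in duplicate were transfected with SSAP-encoding plasmids, with about 50% transfection efficiency. mKate knock-in positive cells and viability, by flow-cytometric live counts, were quantified three days later. RecT SSAP served as positive control and Flag-HA plasmid as negative control.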

B1: Homolog_T1: RecT, Pantoea stewartii; SEQ ID NO: 115 (protein, listed as Pantoea stewartii)
chain: MSNQPPIASADLQKANTGKQVANKTPEQTLVGFMNQPAMKSQLAAALPRHMTADRMIRIVTTEIRKTPALATCDQSSFIGAVVQCSQLGLEPGSALGHAYLLPFGNGRSKSGQSNVQLIIGYRGMIDLARRSGQIVSLSARVVRADDEFSFEYGLDENLIHRPGENEDAPITHVYAVARLKDGGTQFEVMTVKQIEKVKAQSKASSNGPWVTHWEEMAKKTVIRRLFKYLPVSIEMQKAVILDEKAESDVDQDNASVLSAEYSVLDGSSEE
For B1, the “Mean mKate+ (%), DYNLT1” value (DYNLT1 locus) was 11.7333% and the “Mean mKate+ (%), HSP90AA1” value (HSP90AA1 locus) was 8.0733%.

B2: SSAP_199: SEQ ID NO: 368; uncultured Mediterranean phage uvMED (protein)
chain: TSSITPLVAMQGTLEKMADKFTEALPRQMDVNKFISVAKLTLNKNPRLLQADKTSLMQTFMKAAQDGLYLDGKEAAAVQYGQSVQYIPMVEGIIKVLHNSGLIKTISAEVVYENDFFDYELGTAPKITHKPLIVGDRGKPMCVYAVAITTNDGEYYEVMNMDQINQCRQVSKASSSPHSPWVKWFDQMAKKTVIHRIAKRLPKNDAINSVVTVDDEPNFQQAVNVTPSEPKDSLSRLRDSIGMEGKDVEQAANDLLEKYNKEAREE
modifications: uncultured Mediterranean phage uvMED
B2 was tested, and the “Cas9 with SSAP activity” value (gene editing with Cas9) was −7.274, the “Cas9 with SSAP activity (normalized)” value (gene editing with Cas9) was −1.400 and the “dCas9 with SSAP activity” value (gene editing with dCas9) was −2.480. For the same molecule, the “dCas9 with SSAP activity (normalized)” value (gene editing with dCas9) was −0.364, the “Activity across all experiments” value [1] was −4.877 and the “Cell Viability (Average, two targets)” value (mammalian cells; live cell counts via flow cytometry, average of HSP90 and ACTB) was 0.5186. The “Editing Efficiency (Normalized, Average, two targets)” value [2] was 4.602 and the “Editing Efficiency (Absolute, Average, two targets)” value [2] was 11.4025.

B3: Homolog_E1: RecE, Pantoea stewartii; SEQ ID NO: 116 (protein, listed as Pantoea stewartii)
chain: MQPGVYYDISNEEYHAGPGISKSQLDDIAVSPAIFQWRKSAPVDDEKTAALDLGTALHCLLLEPDEFSKRFMIGPEVNRRTNAGKQKEQDFLDMCEQQGITPITHDDNRKLRLMRDSAFAHPVARWMLETEGKAEASIYWNDRDTQILSRCRPDKLITEFSWCVDVKSTADIGKFQKDFYSYRYHVQDAFYSDGYEAQFCEVPTFAFLVVSSSIDCGRYPVQVFIMDQQAKDAGRAEYKRNLTTYAECQARNEWPGIATLSLPYWAKEIRNV
For B3, the “Mean mKate+ (%), DYNLT1” value (DYNLT1 locus) was 5.7333% and the “Mean mKate+ (%), HSP90AA1” value (HSP90AA1 locus) was 7.6567%.

B4: Homolog_T2: RecT, Pantoea brenneri; SEQ ID NO: 117 (protein, listed as Pantoea brenneri)
chain: MSNQPPIASADLQKTQQSKQVANKTPEQTLVGFMNQPAMKSQLAAALPRHMTADRMIRIVTTEIRKTPQLAQCDQSSFIGAVVQCSQLGLEPGSALGHAYLLPFGNGRSKSGQSNVQLIIGYRGMIDLARRSGQIVSLSARVVRADDEFSFEYGLDENLVHRPGENEDAPITHVYAVARLKDGGTQFEVMTVKQVEKVKAQSKASSNGPWVTHWEEMAKKTVIRRLFKYLPVSIEMQKAVVLDEKAESDVDQDNASVLSAEYSVLESGDEATN
In the case of B4, the “Mean mKate+ (%), DYNLT1” value (DYNLT1 locus) is reported as 12.0000% and the “Mean mKate+ (%), HSP90AA1” value (HSP90AA1 locus) is reported as 6.9233%.

B5: SSAP_229: SEQ ID NO: 398; Amycolatopsis sp. CB00013 (protein, listed as Amycolatopsis sp.)
chain: TTQTVTSAVAQQDSSPAALVRKYRTDFATVLPSHIKPETWLRIATGALRRSSQLAHAAEKNPTSLLVALLDAARKGLEPGTEQYYLVPRKTKRGPEVLGITGYQGEVELMYRAGAVSSVKVEGVREHDTFAYNPGEHDRPVHEINWRANRGDLVLAYAYAYAKMRDGATSNVSVLSADDIAVILSKAEGADSPFSPWQWNPKAMWLKSAAHQLAKWVPTSAERVWQPDGPPLEAPPATPVTLPTVEDVVDAEVVEDWPTTPADTADSEQ
For B5, the “Cas9 with SSAP activity” value (gene editing with Cas9) was −2.969, the “Cas9 with SSAP activity (normalized)” value (gene editing with Cas9) was −0.509 and the “dCas9 with SSAP activity” value (gene editing with dCas9) was −9.275. For the same molecule, the “Activity across all experiments” value [1] was −6.122, the “Cell Viability (Average, two targets)” value (mammalian cells) was 0.8776 and the “Editing Efficiency (Normalized, Average, two targets)” value [2] was 3.971. The “Editing Efficiency (Absolute, Average, two targets)” value [2] was 9.8525.

B6: SSAP_309: SEQ ID NO: 478; Paenibacillus sp. FSL R7-0333 (protein, listed as Paenibacillus sp.)
chain: TVAIELQVQETLDRILDSKHDALPSDFNKKRFSENCKAYVADEKDLHKYSPEEIAANLFKGAVLGLDFLAKECHLISGGVELKFQTDYKGEMKLTKKYSVRPLLDVYAKNVREGDEFREEVIEGRPVIHFAPLPFNASSIIGSFAVALFQDGGMVYESIPAGEIEEIRKNYGKSLGDAWDKSQGEMYKRTVLRRLCKTIETDFDAEQRLIYDAGGAFEFTKQPARSRQQSPFNPPEESEVTQDDRVAETDQG
B6 was tested, and the “Cas9 with SSAP activity” value (gene editing with Cas9) was −3.975, the “Cas9 with SSAP activity (normalized)” value (gene editing with Cas9) was −1.807 and the “dCas9 with SSAP activity” value (gene editing with dCas9) was −9.420. The “dCas9 with SSAP activity (normalized)” value (gene editing with dCas9) was −2.412, the “Activity across all experiments” value [1] was −6.697 and the “Cell Viability (Average, two targets)” value (mammalian cells) was 0.9224. For the same molecule, the “Editing Efficiency (Normalized, Average, two targets)” value [2] was 3.992 and the “Editing Efficiency (Absolute, Average, two targets)” value [2] was 9.885.

B7: SSAP_15: SEQ ID NO: 184 (protein)
chain: AKNELAKGSYLTDLQKLDGNTLRDFVDPKHQASPQELQALLAIVKGRNLNPFTKEVYFIKYGSAPAQIVVSKEAIMKRAEENPDFDGFEAGIVVETKDGAIERLTGTIVPKSATLRGGWCKVYRKDRSHAIEADADFAYYTTSKNLWQKMPALMIRKVAIVSAFREAFSESVGGLYTADEMQRETQAEVRARKMKEAYEEKLYLLTQMEAKSYKKTKSKNENEAKKTKEAEAIETVEEPTQDGNLEW
With B7 the “Cas9 with SSAP activity” value (gene editing with Cas9) was −1.876, the “Cas9 with SSAP activity (normalized)” value (gene editing with Cas9) was −0.850 and the “dCas9 with SSAP activity” value (gene editing with dCas9) was −0.701. For the same molecule, the “dCas9 with SSAP activity (normalized)” value (gene editing with dCas9) was −2.250, the “Activity across all experiments” value [1] was −1.288 and the “Cell Viability (Average, two targets)” value (mammalian cells) was 1.226. The “Editing Efficiency (Normalized, Average, two targets)” value [2] was 5.477 and the “Editing Efficiency (Absolute, Average, two targets)” value [2] was 13.55.

B8: SSAP_198: SEQ ID NO: 367; Streptomyces sp. ms191 (protein, listed as Streptomyces sp.)
chain: VEHYKADLAQVMPSHVKPDTFIRLAVGVLRRDRNLAQAAQNNPAALMGALMDAAQLGLTPGTEQFYLVPRKKAGRLEVQGIRGYQGEIELIYRAGAVSSVIVEVVRQADTFRYSPGRDERPEHEIDWDAEDRGPLRLVYAYAVMKDGATSKVVVLNRAQVMKAKAMSQGSDSAYSPWQKHEEAMWMKTAAHRLTKWVPTSAEYMREQLRAAAEVAAEHRPTPVAAAPGMPSVPGEDEAIEAEFVDEDEVA
In the case of B8, the “Cas9 with SSAP activity” value (gene editing with Cas9) is reported as −4.061, the “Cas9 with SSAP activity (normalized)” value (gene editing with Cas9) is reported as −0.571 and the “dCas9 with SSAP activity” value (gene editing with dCas9) is reported as −2.578. The “dCas9 with SSAP activity (normalized)” value (gene editing with dCas9) was −0.849, the “Activity across all experiments” value [1] was −3.320 and the “Cell Viability (Average, two targets)” value (mammalian cells) was 0.4444. For the same molecule, the “Editing Efficiency (Normalized, Average, two targets)” value [2] was 5.524 and the “Editing Efficiency (Absolute, Average, two targets)” value [2] was 13.65.

B9: Homolog_E2: RecE, Pantoea brenneri; SEQ ID NO: 118 (protein, listed as Pantoea brenneri)
chain: MQPGIYYDISNEDYHRGAGISKSQLDDIAISPAIYQWRKHAPVDEEKTAALDLGTALHCLLLEPDEFSKRFQIGPEVNRRTTAGKEKEKEFIERCEAEGITPITHDDNRKLKLMRDSALAHPIARWMLEAQGNAEASIYWNDRDAGVLSRCRPDKIITEFNWCVDVKSTADIMKFQKDFYSYRYHVQDAFYSDGYESHFHETPTFAFLAVSTSIDCGRYPVQVFIMDQQAKDAGRAEYKRNIHTFAECLSRNEWPGIATLSLPFWAKELRNE
In the case of B9, the “Mean mKate+ (%), DYNLT1” value (DYNLT1 locus) is reported as 7.4533% and the “Mean mKate+ (%), HSP90AA1” value (HSP90AA1 locus) is reported as 6.4867%.
